Measurements as given in patent US20260242478A1 (published 2026).
Where no end group is shown, it is not given here.

B1: Phage-2542 (peptide)
peptide: DLKWCFPDWMCQVG
modifications: cysteine pairing not given here; also: fused to phage pIII, linker and fusion site not given here
notes: Clonal phage of the Peptide-180 library, tested as crude supernatant; not shown: pIII coat protein of the bacteriophage to which the peptide is fused
B2: Phage-2634 (peptide)
peptide: TDKLCRPPWMCELM
modifications: cysteine pairing not given here; also: displayed on phage pIII, linker not given here
notes: Clonal phage of the Peptide-180 library, tested as crude phage supernatant; not shown: pIII filament protein of the bacteriophage
B3: Phage-2635 (peptide)
peptide: DMKWCTPAWMCQSS
modifications: cysteine pairing not given here; also: displayed on phage pIII, linker not given here
notes: as for B2
B4: Phage-2636 (peptide)
peptide: DDRWCIPTWMCFLD
modifications: cysteine pairing not given here; also: displayed on phage pIII, linker not given here
notes: as for B2
B5: Phage-2637 (peptide)
peptide: TVKWCTPPWMCEES
modifications: cysteine pairing not given here; also: displayed on phage pIII, linker not given here
notes: as for B2
B6: Phage-2638 (peptide)
peptide: WAKWCTPVWMCQGI
modifications: cysteine pairing not given here; also: displayed on phage pIII, linker not given here
notes: as for B2
B7: Phage-2639 (peptide)
peptide: VGNWCTPMWMCQAF
modifications: cysteine pairing not given here; also: displayed on phage pIII, linker not given here
notes: as for B2
B8: Phage-2640 (peptide)
peptide: VPKWCTPEWMCIIH
modifications: cysteine pairing not given here; also: displayed on phage pIII, linker not given here
notes: as for B2
B9: Phage-2641 (peptide)
peptide: AEKLCIPDWMCDVY
modifications: cysteine pairing not given here; also: displayed on phage pIII, linker not given here
notes: as for B2
B10: Phage-2642 (peptide)
peptide: DLKWCIPSWMCTST
modifications: cysteine pairing not given here; also: displayed on phage pIII, linker not given here
notes: as for B2
B11: Phage-2643 (peptide)
peptide: VEKLCKPAWMCNGQ
modifications: cysteine pairing not given here; also: displayed on phage pIII, linker not given here
notes: as for B2
B12: Phage-2644 (peptide)
peptide: PERMCVPQWMCTVT
modifications: cysteine pairing not given here; also: displayed on phage pIII, linker not given here
notes: as for B2
B13: Phage-2645 (peptide)
peptide: FPKWCTPEWMCSLT
modifications: cysteine pairing not given here; also: displayed on phage pIII, linker not given here
notes: as for B2

Legend:
[1] = biological target: T1, PSMA Fab; assay: clonal phage ELISA on biotinylated PSMA Fab captured on neutravidin plates, anti-M13-HRP detection; blocking buffer alone
T1 construct: Biotinylated and captured on neutravidin plates in the phage ELISA; also called Anti-PSMA Fab; 006 PSMA Fab
Description: (§1) Clonal phage were harvested as crude supernatants and screened via standard ELISAs. […] Prior to the addition of clonal phage. wells were incubated with blocking buffer and PSMA antigen or blocking buffer alone. Without washing or aspirating, clonal phage supernatants were then added to the wells and incubated for a short time. Wells were then washed followed by detection of bound phage using a horse radish conjugated anti-M13 antibody.

[2] = biological target: T2, PSMA Fab; assay: phage binding ELISA; biotinylated PSMA Fab on neutravidin plate, clonal phage supernatant, anti-M13 HRP detection; column read as anti-PSMA Fab pre-incubated with PSMA antigen as competitor
T2 construct: also called Anti-PSMA Fab; 006 PSMA Fab
Description: as §1

[3] = biological target: T2, PSMA Fab; assay: phage binding ELISA; biotinylated PSMA Fab on neutravidin plate, clonal phage supernatant, anti-M13 HRP detection; column read as anti-PSMA Fab without PSMA antigen
Description: as §1

[4] = biological target: T3, PSMA Fab (006 PSMA Fab) (biotinylated (site not given)); assay: clonal phage ELISA; biotinylated PSMA Fab on neutravidin plate, blocking buffer alone; anti-M13 HRP detection;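 also: crude clonal phage supernatants added without washing to wells pretreated with blocking buffer with or without PSMA antigen, short incubation, then washed before detecting bound phage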
T3 construct: also called Anti-PSMA Fab; anti-PSMA Fab

[5] = biological target: T3, PSMA Fab (006 PSMA Fab); assay: clonal phage ELISA; biotinylated PSMA Fab on neutravidin plate, wells pre-incubated with PSMA antigen as competitor; anti-M13 HRP detection;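 also: crude clonal phage supernatants added to antigen-treated wells without a wash, incubated briefly, then bound phage read out via horse radish–conjugated anti-M13 antibody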
Description: as §1

| Binder | Phage binding ELISA signal, Anti-PSMA Fab [1] | phage binding ELISA signal [2] | phage binding ELISA signal [3] | Phage binding ELISA signal, Anti-PSMA Fab [4] | Phage binding ELISA signal, Anti-PSMA Fab with PSMA antigen [5] |
| --- | --- | --- | --- | --- | --- |
| B1 | 1.15 | – | – | – | – |
| MIGWCTPSWMCSGF [Phage-2588] | – | 0.0716 | 1.06 | – | – |
| VLNWCTPPWMCLGI [Phage-2589] | – | 0.107 | 1.06 | – | – |
| MPRWCTPAWMCEAI [Phage-2590] | – | 0.063 | 1.05 | – | – |
| TDKWCVPEWMCMEF [Phage-2591] | – | 0.0773 | 1.05 | – | – |
| HFNWCTPSWMCDVL [Phage-2592] | – | 0.118 | 1.05 | – | – |
| DGIWCTPRWMCEGM [Phage-2593] | – | 0.0865 | 1.05 | – | – |
| HPQLCIPSWMCNVW [Phage-2594] | – | 0.105 | 1.05 | – | – |
| MVKWCTPPWMCNFE [Phage-2595] | – | 0.121 | 1.05 | – | – |
| MFKWCTPSWMCERV [Phage-2596] | – | 0.176 | 1.05 | – | – |
| VHKWCTPAWMCEVH [Phage-2597] | – | 0.0662 | 1.04 | – | – |
| LVKWCVPDWMCQET [Phage-2598] | – | 0.0671 | 1.04 | – | – |
| LSKWCIPDWMCISS [Phage-2599] | – | 0.0618 | 1.04 | – | – |
| SVTWCIPPWMCELS [Phage-2600] | – | 0.0673 | 1.04 | – | – |
| IEKWCMPSWMCEWN [Phage-2601] | – | 0.0609 | 1.03 | – | – |
| ETKLCKPMWMCALL (cysteine pairing not given here; also: displayed on phage as pIII fusion) [Phage-2602] | – | 0.126 | 1.03 | – | – |
| GMKWCTPEWMCQIV [Phage-2603] | – | 0.28 | 1.03 | – | – |
| B2 | – | – | – | 0.966 | 0.065 |
| B3 | – | – | – | 0.966 | 0.0701 |
| B4 | – | – | – | 0.965 | 0.0733 |
| B5 | – | – | – | 0.964 | 0.0943 |
| B6 | – | – | – | 0.961 | 0.136 |
| B7 | – | – | – | 0.961 | 0.0864 |
| B8 | – | – | – | 0.958 | 0.0705 |
| B9 | – | – | – | 0.957 | 0.0771 |
| B10 | – | – | – | 0.957 | 0.0977 |
| B11 | – | – | – | 0.956 | 0.0808 |
| B12 | – | – | – | 0.956 | 0.107 |
| B13 | – | – | – | 0.955 | 0.0592 |
